The source of these data is paper PMC4005879 (Bioorganic & medicinal chemistry letters, 2014).

By Kd is commonly meant the concentration at which binding is half-saturated. Broadly, the stoichiometry N is the number of molecules, sites or subunits per partner or assembly. The term IC50 denotes the concentration needed to halve the response being measured.

The target of test [1] is capsid assembly inhibitor (CAI) peptide. Briefly: ITC.
Test [2] deals with HIV capsid protein p24 CTD (Human immunodeficiency virus 1) (UniProt O93182). Conditions: cited from earlier work.
Test [3] has as its system HIV-1. Conditions: read-out: MT-2 cells IC50, multi-cycle infection assay, ref [8]; cited from earlier work.
The test system of test [4] is HIV-1. The conditions noted are these: read-out: TZM-b1 cells IC50; single-cycle assay, TZM-bl cells; ref [8]; cited from earlier work.

Read-outs that look alike come from different tables or passages of the source.

As for “C-terminal domain (CTD) of the HIV capsid protein p24, M184A/W185A (domain or fragment)”, in test [1], the Kd was 8.3 µM, the dH was -9.45 kcal/mol and the stoichiometry N stood at 0.98.
As to CAI, the Kd in test [2] is 15 µM.
As for “ISFR8ELLDYYS5ESGS (sidechain bridge or staple) [NYAD-36]”, the IC50 with HIV-1 [3] was 1.5 ± 0.17 µM; with HIV-1 [4], 2 ± 0.4 µM.
